The source of these data is patent publication US20100316636A1.

The target of test [1] is human IL-6 receptor on hIL-6-responsive cells (XG-1 myeloma line, HepG2 hepatoma line) (human) (UniProt P08887). Kind of test: cell-based or functional assay.
Test [2] addresses recombinant human IL-6R protein, monomeric form (human) (UniProt P08887). Kind of test: Kinexa solution-phase competition immunoassay, monomer.
For test [3] the target is unchanged. Kind of test: SPR (BIAcore), captured antibody, monomeric hIL-6R injected. (In general: In SPR one partner is held on a chip, and binding of the other changes the refractive index at the surface.)
Another test has as its target hIL-6R-hFc (human) (UniProt P08887). Kind of test: blocking immunoassay: 100 pM hIL-6R-hFc premixed with titrated antibody, free hIL-6R-hFc captured on coated hIL-6.
The target of test [4] is recombinant monkey monomeric IL-6R protein (Macaca fascicularis, extracellular domain) (Macaca fascicularis). Kind of test: SPR (BIAcore), antibody captured on anti-mouse Fc, monomeric IL-6R 1.25-40 nM injected.
Chain of recombinant monkey monomeric IL-6R protein (Macaca fascicularis, extracellular domain) (Macaca fascicularis) (P08887 other isoform, or with tags, fused parts or gaps): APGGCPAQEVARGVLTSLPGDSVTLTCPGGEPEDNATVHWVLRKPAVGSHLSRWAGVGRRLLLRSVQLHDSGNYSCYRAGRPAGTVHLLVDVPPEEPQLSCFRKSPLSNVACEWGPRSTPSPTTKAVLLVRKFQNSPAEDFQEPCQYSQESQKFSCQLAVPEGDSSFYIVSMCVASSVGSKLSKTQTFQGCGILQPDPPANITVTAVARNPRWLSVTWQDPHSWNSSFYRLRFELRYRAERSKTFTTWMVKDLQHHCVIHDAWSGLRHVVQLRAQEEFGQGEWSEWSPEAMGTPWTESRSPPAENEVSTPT
The target of test [5] is recombinant human IL-6R protein, monomeric form (human) (UniProt P08887). The test is described as above.
Chain of recombinant human IL-6R protein, monomeric form (human) (P08887 20-358 limits assumed): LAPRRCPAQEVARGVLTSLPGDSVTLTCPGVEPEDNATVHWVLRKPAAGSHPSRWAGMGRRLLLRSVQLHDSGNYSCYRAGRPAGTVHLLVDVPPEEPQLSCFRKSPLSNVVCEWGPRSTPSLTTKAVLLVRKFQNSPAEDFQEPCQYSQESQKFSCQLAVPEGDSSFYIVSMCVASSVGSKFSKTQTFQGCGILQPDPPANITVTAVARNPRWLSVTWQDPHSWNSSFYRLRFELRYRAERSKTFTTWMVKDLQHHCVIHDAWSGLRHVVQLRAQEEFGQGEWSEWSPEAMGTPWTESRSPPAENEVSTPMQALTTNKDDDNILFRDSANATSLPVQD

Chain of human IL-6 receptor on hIL-6-responsive cells (XG-1 myeloma line, HepG2 hepatoma line) (human) (P08887 20-468): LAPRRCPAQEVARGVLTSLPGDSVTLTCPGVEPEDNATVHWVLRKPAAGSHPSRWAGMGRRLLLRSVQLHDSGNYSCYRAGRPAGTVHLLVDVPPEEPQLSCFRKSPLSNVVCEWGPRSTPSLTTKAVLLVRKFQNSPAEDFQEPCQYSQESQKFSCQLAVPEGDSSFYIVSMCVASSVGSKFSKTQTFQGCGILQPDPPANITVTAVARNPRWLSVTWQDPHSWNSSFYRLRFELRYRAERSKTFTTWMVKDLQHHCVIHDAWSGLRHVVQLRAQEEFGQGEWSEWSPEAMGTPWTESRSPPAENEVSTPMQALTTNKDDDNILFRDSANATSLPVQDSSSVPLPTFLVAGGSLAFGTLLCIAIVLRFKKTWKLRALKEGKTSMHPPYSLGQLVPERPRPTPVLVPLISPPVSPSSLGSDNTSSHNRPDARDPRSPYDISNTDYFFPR
Chain of hIL-6R-hFc (human) (P08887 20-358): as the sequence (P08887 20-358 limits assumed) above

By Kd is commonly meant the equilibrium constant for the complex coming apart. One may read the IC50 as the concentration needed to halve the response being measured. In test [1], “control: humanized monoclonal antibody to human IL-6R (U.S. Pat. No. 5,817,790 SEQ ID NO:69 and 71)” had a HepG2/Stat3 Luciferase activity IC50 of 0.854 nM. The same substance showed an XG-1 cell proliferation Inhibition IC50 in test [1] of 1.5 nM. For the same substance, the Kd in test [2] stood at 1.96 nM; in test [3], 1.79 nM; in test [4], 1.17 nM; in test [5] it was 0.963 nM. Moreover, the IC50 in the test with hIL-6R-hFc (human) stood at 2.2 nM.
